According to article PMC8480326, “Chemoenzymatic glycan-selective remodeling of a therapeutic lysosomal enzyme with high-affinity M6P-glycan ligands. Enzyme substrate specificity is the name of the game” (Chemical Science, 2021):

Assay: observation during stepwise remodeling
Details: glycan lost; control: commercial rhGAA

In the case of “recombinant human acid α-glucosidase (rhGAA, Lumizyme): Endo-F3 deglycosylation”, the stability_or_folding was “decreases”.
